# Measured values: paper PMC7111185 (Biochemical and Biophysical Research Communications, 2004)
# B1: GST-HR2-38 (GST fusion of SARS-CoV spike HR2, amino acids 1149-1186) (domain or fragment)
# chain: GDISGINASVVNIQKEIDRLNEVAKNLNESLIDLQELG
# Molecular target: 30a-HR1 (His-tagged heptad repeat 1 region of SARS-CoV spike protein, amino acids 898-1005) (SARS-CoV, UniProt P59594 898-1005)
# Assay: pull-down
binder,measurement,value
B1,binding result,binds
